Results reported in US20190004052A1 (published 2019).
Non-standard residues stand in square brackets, D forms with d. No end group written: not given here. pS = N[C@@H](COP(=O)(O)O)C(=O)O

Target: T1, Phosphopeptide TF1-Pser258 CKEN(pS)PLNVS (human)
T1 construct: Synthetic phosphopeptide
T1 peptide: CKEN[pS]PLNVS
Experiment: peptide ELISA, optical density (FIG. 7)

B1: hybrid IgG2b anti-TF2-Pser253 monoclonal antibody MAb 680 (antibody, V domains shown)
VH: DVQLQESGPGLVKPSQSLSLTCTVTGYSITSDYAWNWIRQFPGNKLEWMGYISYSGSTSYNPSLKSRISITRDTSKNQFFLQLNSVTTEDTATYYCARIRGYLAMDYWGQGTSVTVSS
VL: DIVMTQAAFSNPVTLGTSASISCRSSKSLLHSNGITYLYWYLQKPGQSPQLLIYQMSNLASGVPDRFSSSGSGTDFTLRISRVEAEDVGVYYCAQNLELPPTFGGGTKLEIKR
notes: The Fab portion of IgM clone 4A6-4B5-1E2 was fused onto murine IgG2b light and heavy chains and made in HEK cells; also called M680; hybrid IgG anti-TF2-pser253 M680
B1: no binding.
